Results taken from paper PMC7794846.

What was measured:
[1] = target: LHCGR I83S mutant (human) (UniProt P22888)
[2] = target: LHCGR R247T mutant (human) (UniProt P22888)
[3] = target: LHCGR T48R mutant (human) (UniProt P22888)
[4] = target: LHCGR K225S + T226I mutant (human) (UniProt P22888)
[5] = target: LHCGR E270V mutant (human) (UniProt P22888)
[6] = target: human luteinizing hormone (LH)/chorionic gonadotropin (hCG) receptor (LHCGR), wild type (human) (UniProt P22888)
[7] = target: LHCGR S149F mutant (human) (UniProt P22888)
[8] = target: LHCGR A57T mutant (human) (UniProt P22888)
[9] = target: LHCGR N35D + V37A mutant (human) (UniProt P22888)
[10] = target: LHCGR I83S mutant (human) (UniProt P22888); remark: listed apart in the source
[11] = target: LHCGR R247T mutant (human) (UniProt P22888); remark: listed apart in the source
[12] = target: LHCGR T48R mutant (human) (UniProt P22888); remark: listed apart in the source
[13] = target: LHCGR K225S + T226I mutant (human) (UniProt P22888); remark: listed apart in the source
[14] = target: LHCGR E270V mutant (human) (UniProt P22888); remark: listed apart in the source
[15] = target: human luteinizing hormone (LH)/chorionic gonadotropin (hCG) receptor (LHCGR), wild type (human) (UniProt P22888); remark: listed apart in the source
[16] = target: LHCGR S149F mutant (human) (UniProt P22888); remark: listed apart in the source
[17] = target: LHCGR A57T mutant (human) (UniProt P22888); remark: listed apart in the source
[18] = target: LHCGR N35D + V37A mutant (human) (UniProt P22888); remark: listed apart in the source

For “recombinant human chorionic gonadotropin (hCG) (from UniProt P01215 25-116; P0DN86 21-165) (ligand)”, the hCG EC50 (pM) of cAMP increase, BRET (CAMYEL biosensor) in transfected HEK293 cells, 1 pM–100 nM hCG, 30 min [1] was 127 pM, the hCG EC50 (pM) of cAMP increase, BRET (CAMYEL biosensor) in transfected HEK293 cells, 1 pM–100 nM hCG, 30 min [2] was 386 pM and the hCG EC50 (pM) of cAMP increase, BRET (CAMYEL biosensor) in transfected HEK293 cells, 1 pM–100 nM hCG, 30 min [3] was 130 pM. It also gave a hCG EC50 (pM) of cAMP increase, BRET (CAMYEL biosensor) in transfected HEK293 cells, 1 pM–100 nM hCG, 30 min [4] of 194 pM, a hCG EC50 (pM) of cAMP increase, BRET (CAMYEL biosensor) in transfected HEK293 cells, 1 pM–100 nM hCG, 30 min [5] of 248 pM and a hCG EC50 (pM) of cAMP increase, BRET (CAMYEL biosensor) in transfected HEK293 cells, 1 pM–100 nM hCG, 30 min [6] of 143 pM. The hCG EC50 (pM) of cAMP increase, BRET (CAMYEL biosensor) in transfected HEK293 cells, 1 pM–100 nM hCG, 30 min [7] was 111 pM, the hCG EC50 (pM) of cAMP increase, BRET (CAMYEL biosensor) in transfected HEK293 cells, 1 pM–100 nM hCG, 30 min [8] was 153 pM and the hCG EC50 (pM) of cAMP increase, BRET (CAMYEL biosensor) in transfected HEK293 cells, 1 pM–100 nM hCG, 30 min [9] was 94.5 pM. The hCG AUC of the pERK1/2 activation kinetics, BRET (REV biosensor) in transfected HEK293 cells, 100 pM hCG (relative units) [10] was 6.65, the hCG AUC of the pERK1/2 activation kinetics, BRET (REV biosensor) in transfected HEK293 cells, 100 pM hCG (relative units) [11] was 15.4 and the hCG AUC of the pERK1/2 activation kinetics, BRET (REV biosensor) in transfected HEK293 cells, 100 pM hCG (relative units) [12] was 13.4. For the same substance, the hCG AUC of the pERK1/2 activation kinetics, BRET (REV biosensor) in transfected HEK293 cells, 100 pM hCG (relative units) [13] was 9.47, the hCG AUC of the pERK1/2 activation kinetics, BRET (REV biosensor) in transfected HEK293 cells, 100 pM hCG (relative units) [14] was 7.18 and the hCG AUC of the pERK1/2 activation kinetics, BRET (REV biosensor) in transfected HEK293 cells, 100 pM hCG (relative units) [15] was 7.98. The hCG AUC of the pERK1/2 activation kinetics, BRET (REV biosensor) in transfected HEK293 cells, 100 pM hCG (relative units) [16] was 13.9, the hCG AUC of the pERK1/2 activation kinetics, BRET (REV biosensor) in transfected HEK293 cells, 100 pM hCG (relative units) [17] was 20.5 and the hCG AUC of the pERK1/2 activation kinetics, BRET (REV biosensor) in transfected HEK293 cells, 100 pM hCG (relative units) [18] was 8.19.

“recombinant human luteinizing hormone (LH) (from UniProt P01215 25-116; P01229 21-141) (ligand)” was tested, and the LH EC50 (pM) of cAMP increase, BRET (CAMYEL biosensor) in transfected HEK293 cells, 1 pM–100 nM LH, 30 min [1] was 712 pM, the LH EC50 (pM) of cAMP increase, BRET (CAMYEL biosensor) in transfected HEK293 cells, 1 pM–100 nM LH, 30 min [2] was 556 pM and the LH EC50 (pM) of cAMP increase, BRET (CAMYEL biosensor) in transfected HEK293 cells, 1 pM–100 nM LH, 30 min [3] was 1210 pM. It also gave an LH EC50 (pM) of cAMP increase, BRET (CAMYEL biosensor) in transfected HEK293 cells, 1 pM–100 nM LH, 30 min [4] of 698 pM, an LH EC50 (pM) of cAMP increase, BRET (CAMYEL biosensor) in transfected HEK293 cells, 1 pM–100 nM LH, 30 min [5] of 2810 pM and an LH EC50 (pM) of cAMP increase, BRET (CAMYEL biosensor) in transfected HEK293 cells, 1 pM–100 nM LH, 30 min [6] of 1110 pM. It also gave an LH EC50 (pM) of cAMP increase, BRET (CAMYEL biosensor) in transfected HEK293 cells, 1 pM–100 nM LH, 30 min [7] of 756 pM, an LH EC50 (pM) of cAMP increase, BRET (CAMYEL biosensor) in transfected HEK293 cells, 1 pM–100 nM LH, 30 min [8] of 703 pM and an LH EC50 (pM) of cAMP increase, BRET (CAMYEL biosensor) in transfected HEK293 cells, 1 pM–100 nM LH, 30 min [9] of 595 pM. The LH AUC of the pERK1/2 activation kinetics, BRET (REV biosensor) in transfected HEK293 cells, 100 pM LH (relative units) [10] was 8.03, the LH AUC of the pERK1/2 activation kinetics, BRET (REV biosensor) in transfected HEK293 cells, 100 pM LH (relative units) [11] was 10.5 and the LH AUC of the pERK1/2 activation kinetics, BRET (REV biosensor) in transfected HEK293 cells, 100 pM LH (relative units) [12] was 12.3. It also gave an LH AUC of the pERK1/2 activation kinetics, BRET (REV biosensor) in transfected HEK293 cells, 100 pM LH (relative units) [13] of 11.4, an LH AUC of the pERK1/2 activation kinetics, BRET (REV biosensor) in transfected HEK293 cells, 100 pM LH (relative units) [14] of 10.9 and an LH AUC of the pERK1/2 activation kinetics, BRET (REV biosensor) in transfected HEK293 cells, 100 pM LH (relative units) [15] of 13.9. For the same substance, the LH AUC of the pERK1/2 activation kinetics, BRET (REV biosensor) in transfected HEK293 cells, 100 pM LH (relative units) [16] was 10.4, the LH AUC of the pERK1/2 activation kinetics, BRET (REV biosensor) in transfected HEK293 cells, 100 pM LH (relative units) [17] was 10.9 and the LH AUC of the pERK1/2 activation kinetics, BRET (REV biosensor) in transfected HEK293 cells, 100 pM LH (relative units) [18] was 5.48.
